± gives the standard deviation of the averaged measurements.
How the values were obtained:
[1] = tested on: Saccharomyces cerevisiae; experiment: protein stability index of tFT-peptide fusion (C-terminal peptide) (PSI (0-1 scale)); higher = more stable (slower turnover); conditions: genetic background: wild type; temperature: 30 C
[2] = tested on: Saccharomyces cerevisiae; experiment: as above
Description: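 MPS profiling in S. cerevisiae of the tFT-X12 degron library: putative degron peptides plus stable controls, 12 aa, fused to the C-terminus of a sfGFP-mCherry timer. Cells are FACS-sorted into 8 mCherry/sfGFP bins and deep-sequenced. PSI runs from 0 (unstable) to 1 (stable). Backgrounds are wild type, das1Δ and doa10Δ at 30 °C, and wild type, das1Δ, cdc34-1 and cdc53-1 at 37 °C; 2-3 technical replicates each.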

[3] = genetic background: cdc34-1, temperature: 37 C
[4] = genetic background: cdc53-1, temperature: 37 C
[5] = genetic background: das1 deletion, temperature: 30 C
[6] = genetic background: das1 deletion, temperature: 37 C
[7] = genetic background: doa10 deletion, temperature: 30 C
[8] = genetic background: wild type, temperature: 30 C
[9] = genetic background: wild type, temperature: 37 C
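Further: PSI is a weighted mean of sequencing reads over stability bins, variants kept only with over 10 reads, mCherry proximal and sfGFP distal, peptide attached via GGGS linker.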

| Sequence | protein stability index [1] | protein stability index [2, 3] | protein stability index [2, 4] | protein stability index [2, 5] | protein stability index [2, 6] | protein stability index [2, 7] | protein stability index [2, 8] | protein stability index [2, 9] |
| --- | --- | --- | --- | --- | --- | --- | --- | --- |
| ILFCVRIGLFWT | 0.219 ± 0.051 | 0.0461 ± 0.0067 | 0.135 ± 0.0014 | 0.137 ± 0.03 | 0.24 ± 0.0035 | 0.146 ± 0.019 | 0.128 ± 0.03 | 0.179 ± 0.014 |
| INGINHKIIKIV | 0.155 ± 0.025 | 0.44 ± 0.025 | 0.721 ± 0.042 | 0.65 ± 0.036 | 0.72 ± 0.013 | 0.0842 ± 0.014 | 0.0896 ± 0.017 | 0.0909 ± 0.0048 |
| INILVIWRKNHV | 0.129 ± 0.048 | 0.463 ± 0.00091 | 0.671 ± 0.041 | 0.5213 ± 0.0049 | 0.662 ± 0.014 | 0.0744 ± 0.0074 | 0.0776 ± 0.024 | 0.114 ± 0.021 |
| IPLGLTLVQCLY | 0.53 ± 0.053 | 0.614 ± 0.03 | 0.61 ± 0.029 | 0.491 ± 0.042 | 0.60744 ± 0.00017 | 0.4357 ± 0.00058 | 0.477 ± 0.009 | 0.576 ± 0.0069 |
| IREYSIRIKRLQ | 0.33 ± 0.036 | 0.623 ± 0.062 | 0.722 ± 0.052 | 0.64 ± 0.041 | 0.719 ± 0.022 | 0.138 ± 0.016 | 0.146 ± 0.04 | 0.318 ± 0.058 |
| IRFFLIVFCFLR | 0.284 ± 0.021 | 0.157 ± 0.015 | 0.131 ± 0.017 | 0.251 ± 0.019 | 0.286 ± 0.041 | 0.273 ± 0.0057 | 0.203 ± 0.025 | 0.226 ± 0.022 |
| ISATYSYIPVVG | 0.455 ± 0.038 | 0.502 ± 0.0071 | 0.496 ± 0.011 | 0.346 ± 0.024 | 0.541 ± 0.012 | 0.32388 ± 3.1e-05 | 0.378 ± 0.023 | 0.507 ± 0.0073 |
| ISVRKTFLIVLC | 0.232 ± 0.022 | 0.331 ± 0.031 | 0.351 ± 0.018 | 0.266 ± 0.047 | 0.486 ± 0.01 | 0.152 ± 0.015 | 0.156 ± 0.013 | 0.279 ± 0.025 |
| IVFLPVLLWFSV | 0.407 ± 0.015 | 0.389 ± 0.0069 | 0.411 ± 0.0085 | 0.333 ± 0.032 | 0.474 ± 0.0013 | 0.373 ± 0.019 | 0.297 ± 0.035 | 0.442 ± 0.0084 |
| IVTSFVSPVYIC | 0.12 ± 0.029 | 0.396 ± 0.035 | 0.5353 ± 0.003 | 0.456 ± 0.017 | 0.634 ± 0.055 | 0.0637 ± 0.023 | 0.0746 ± 0.014 | 0.0794 ± 0.021 |
| IWVFSVTGWCGC | 0.452 ± 0.024 | 0.501 ± 0.0055 | 0.589 ± 0.018 | 0.401 ± 0.022 | 0.55 ± 0.008 | 0.3804 ± 0.0007 | 0.417 ± 0.019 | 0.532 ± 0.016 |
| IYITFQIYVSDM | 0.229 ± 0.018 | 0.104 ± 0.018 | 0.172 ± 0.0076 | 0.161 ± 0.019 | 0.267 ± 0.0076 | 0.0912 ± 0.04 | 0.127 ± 0.0083 | 0.244 ± 0.032 |
| IYLLLFFFSFSA | 0.3914 ± 0.0012 | 0.365 ± 0.032 | 0.449 ± 0.053 | 0.376 ± 0.017 | 0.5104 ± 0.0037 | 0.3328 ± 6e-05 | 0.348 ± 0.029 | 0.457 ± 0.024 |
| KKKQAILRTLKI | 0.406 ± 0.0082 | 0.681 ± 0.079 | 0.74 ± 0.026 | 0.663 ± 0.049 | 0.697 ± 0.037 | 0.177 ± 0.045 | 0.197 ± 0.0073 | 0.417 ± 0.013 |
| KKKTKYSKDKLC | 0.343 ± 0.035 | 0.607 ± 0.03 | 0.696 ± 0.025 | 0.662 ± 0.036 | 0.723 ± 0.021 | 0.191 ± 0.028 | 0.217 ± 0.013 | 0.456 ± 0.04 |
| KKTKKTMIIKTT | 0.463 ± 0.0091 | 0.693 ± 0.066 | 0.706 ± 0.027 | 0.6314 ± 0.005 | 0.745 ± 0.0037 | 0.33 ± 0.021 | 0.369 ± 0.04 | 0.6051 ± 0.0008 |
| KLKLWSIIKNNA | 0.385 ± 0.03 | 0.686 ± 0.06 | 0.749 ± 0.021 | 0.658 ± 0.022 | 0.745 ± 0.015 | 0.181 ± 0.008 | 0.25 ± 0.05 | 0.484 ± 0.053 |
| KLMGWFVGVVAR | 0.442 ± 0.015 | 0.494 ± 0.0073 | 0.49 ± 0.019 | 0.355 ± 0.025 | 0.535 ± 0.011 | 0.323 ± 0.0045 | 0.351 ± 0.039 | 0.517 ± 0.033 |
| KLVFLLCLNKVF | 0.243 ± 0.037 | 0.51474 ± 0.00047 | 0.5887 ± 0.0014 | 0.439 ± 0.017 | 0.63 ± 0.0047 | 0.173 ± 0.018 | 0.199 ± 0.013 | 0.29 ± 0.0089 |
| KRKKHKRKLVIC | 0.265 ± 0.043 | 0.611 ± 0.03 | 0.674 ± 0.025 | 0.612 ± 0.012 | 0.732 ± 0.012 | 0.14 ± 0.027 | 0.154 ± 0.045 | 0.148 ± 0.05 |

| Sequence | protein stability index [1] | protein stability index [2, 3] | protein stability index [2, 4] | protein stability index [2, 5] | protein stability index [2, 6] | protein stability index [2, 7] | protein stability index [2, 8] | protein stability index [2, 9] |
| --- | --- | --- | --- | --- | --- | --- | --- | --- |
| KRSPPPATPSSG | 0.24 ± 0.034 | 0.6827 ± 0.0047 | 0.73 ± 0.013 | 0.631 ± 0.025 | 0.76 ± 0.043 | 0.6035 ± 0.0057 | 0.623 ± 0.0081 | 0.704 ± 0.012 |
| KSARLYVTSFLC | 0.194 ± 0.0022 | 0.571 ± 0.0067 | 0.682 ± 0.035 | 0.623 ± 0.012 | 0.739 ± 0.023 | 0.107 ± 0.012 | 0.123 ± 0.0064 | 0.179 ± 0.02 |
| KTRQLINKITQM | 0.254 ± 0.072 | 0.6601 ± 0.00086 | 0.693 ± 0.019 | 0.62 ± 0.018 | 0.7358 ± 0.0036 | 0.137 ± 0.024 | 0.153 ± 0.031 | 0.288 ± 0.031 |
| KYCPCIPLLIAL | 0.429 ± 0.0047 | 0.406 ± 0.0064 | 0.381 ± 0.012 | 0.339 ± 0.036 | 0.5 ± 0.012 | 0.387 ± 0.013 | 0.329 ± 0.033 | 0.443 ± 0.012 |
| LAVRSGFPFGLF | 0.249 ± 0.0026 | 0.642 ± 0.034 | 0.757 ± 0.013 | 0.674 ± 0.012 | 0.783 ± 0.036 | 0.117 ± 0.017 | 0.122 ± 0.03 | 0.224 ± 0.014 |
| LCLLHCSICISF | 0.388 ± 0.014 | 0.352 ± 0.026 | 0.4113 ± 0.0012 | 0.301 ± 0.027 | 0.44881 ± 0.00028 | 0.285 ± 0.015 | 0.295 ± 0.036 | 0.4142 ± 0.0008 |
| LCLLIHFWISHL | 0.244 ± 0.023 | 0.302 ± 0.0069 | 0.44 ± 0.009 | 0.295 ± 0.028 | 0.43 ± 0.019 | 0.167 ± 0.0048 | 0.173 ± 0.013 | 0.2932 ± 0.0011 |
| LCVFFRCFFVGG | 0.514 ± 0.028 | 0.529 ± 0.046 | 0.588 ± 0.022 | 0.457 ± 0.015 | 0.608 ± 0.0094 | 0.433 ± 0.017 | 0.448 ± 0.018 | 0.5722 ± 0.0043 |
| LCWRLCRFWWVG | 0.363 ± 0.016 | 0.75 ± 0.068 | 0.8494 ± 0.0062 | 0.691 ± 0.033 | 0.829 ± 0.014 | 0.255 ± 0.0076 | 0.254 ± 0.024 | 0.424 ± 0.013 |
| LDHGRVVWVVVS | 0.278 ± 0.022 | 0.371 ± 0.036 | 0.43 ± 0.021 | 0.3 ± 0.034 | 0.493 ± 0.0092 | 0.174 ± 0.011 | 0.201 ± 0.023 | 0.284 ± 0.008 |
| LDRLTTWTLIVR | 0.471 ± 0.031 | 0.457 ± 0.031 | 0.455 ± 0.011 | 0.379 ± 0.026 | 0.524 ± 0.0076 | 0.413 ± 0.0057 | 0.365 ± 0.021 | 0.482 ± 0.0083 |
| LERLHSVLLLTS | 0.284 ± 0.021 | 0.246 ± 0.0054 | 0.254 ± 0.0079 | 0.223 ± 0.036 | 0.379 ± 0.0057 | 0.165 ± 0.019 | 0.217 ± 0.027 | 0.324 ± 0.011 |
| LFFLPPCYWFLL | 0.489 ± 0.019 | 0.665 ± 0.023 | 0.773 ± 0.024 | 0.5834 ± 0.0043 | 0.732 ± 0.049 | 0.384 ± 0.034 | 0.392 ± 0.03 | 0.571 ± 0.013 |
| LFFWWVAVVFRV | 0.23 ± 0.038 | 0.0928 ± 0.025 | 0.0916 ± 0.006 | 0.156 ± 0.049 | 0.236 ± 0.029 | 0.204 ± 0.016 | 0.133 ± 0.02 | 0.189 ± 0.014 |
| LFLVFIGLFFLT | 0.413 ± 0.012 | 0.348 ± 0.011 | 0.429 ± 0.035 | 0.359 ± 0.061 | 0.46 ± 0.011 | 0.338 ± 0.011 | 0.327 ± 0.015 | 0.441 ± 0.01 |
| LFRFSRLFLFVL | 0.207 ± 0.061 | 0.36 ± 0.034 | 0.446 ± 0.11 | 0.578 ± 0.0093 | 0.74 ± 0.028 | 0.214 ± 0.042 | 0.153 ± 0.034 | 0.201 ± 0.017 |
| LFRRMWVEIFYV | 0.253 ± 0.046 | 0.439 ± 0.044 | 0.541 ± 0.043 | 0.423 ± 0.029 | 0.566 ± 0.015 | 0.0969 ± 0.016 | 0.119 ± 0.0081 | 0.155 ± 0.021 |
| LGKSTLYMALNN | 0.402 ± 0.047 | 0.587 ± 0.057 | 0.716 ± 0.036 | 0.611 ± 0.011 | 0.695 ± 0.017 | 0.273 ± 0.013 | 0.309 ± 0.038 | 0.571 ± 0.11 |
| LGVLVVCFNATY | 0.354 ± 0.013 | 0.24 ± 0.0032 | 0.343 ± 0.0057 | 0.27 ± 0.014 | 0.42063 ± 0.00021 | 0.2506 ± 0.00074 | 0.264 ± 0.02 | 0.376 ± 0.017 |

Reference: the supplement of paper PMC10724198
